Test results reported in ChEMBL document CHEMBL1143427, “Interactions of ceftobiprole with beta-lactamases from molecular classes A to D” (Antimicrob Agents Chemother, 2007).

Assays:
[1] = test system: O=C(Cc1cccs1)N[C@@H]1C(=O)N2C(C(=O)[O-])=C(C[n+]3ccccc3)CS[C@H]12; test: (§1) Activity of Pseudomonas aeruginosa VIM2 assessed as drug hydrolysis by spectrophotometry
[2] = test system: CC(C)(O/N=C(\C(=O)N[C@@H]1C(=O)N2C(C(=O)[O-])=C(C[n+]3ccccc3)CS[C@H]12)c1csc(N)n1)C(=O)O; test: as §1
[3] = test system: Nc1nc(/C(=N/O)C(=O)N[C@@H]2C(=O)N3C(C(=O)O)=C(/C=C4\CCN([C@@H]5CCNC5)C4=O)CS[C@H]23)ns1; test: as §1
[4] = test system: O=C(Cc1cccs1)N[C@@H]1C(=O)N2C(C(=O)[O-])=C(C[n+]3ccccc3)CS[C@H]12; test: (§2) Ratio of Kcat to Km of Pseudomonas aeruginosa VIM2 assessed as drug hydrolysis by spectrophotometry
[5] = test system: CC(C)(O/N=C(\C(=O)N[C@@H]1C(=O)N2C(C(=O)[O-])=C(C[n+]3ccccc3)CS[C@H]12)c1csc(N)n1)C(=O)O; test: as §2
[6] = test system: CC1(C)S[C@@H]2[C@H](NC(=O)Cc3ccccc3)C(=O)N2[C@H]1C(=O)O; test: (§3) Ratio of Kcat to Km of Morganella morganii AmpC assessed as drug hydrolysis by spectrophotometry
[7] = test system: O=C(Cc1cccs1)N[C@@H]1C(=O)N2C(C(=O)[O-])=C(C[n+]3ccccc3)CS[C@H]12; test: as §3
[8] = test system: CC(C)(O/N=C(\C(=O)N[C@@H]1C(=O)N2C(C(=O)[O-])=C(C[n+]3ccccc3)CS[C@H]12)c1csc(N)n1)C(=O)O; test: as §3
[9] = test system: Nc1nc(/C(=N/O)C(=O)N[C@@H]2C(=O)N3C(C(=O)O)=C(/C=C4\CCN([C@@H]5CCNC5)C4=O)CS[C@H]23)ns1; test: as §3
[10] = test system: O=C(Cc1cccs1)N[C@@H]1C(=O)N2C(C(=O)O)=C(/C=C/c3ccc([N+](=O)[O-])cc3[N+](=O)[O-])CS[C@H]12; test: as §3
[11] = test system: CO/N=C(\C(=O)N[C@@H]1C(=O)N2C(C(=O)[O-])=C(C[N+]3(C)CCCC3)CS[C@H]12)c1csc(N)n1; test: as §3
[12] = test system: CC1(C)S[C@@H]2[C@H](NC(=O)Cc3ccccc3)C(=O)N2[C@H]1C(=O)O; test: (§4) Activity of Morganella morganii AmpC assessed as drug hydrolysis by spectrophotometry
[13] = test system: O=C(Cc1cccs1)N[C@@H]1C(=O)N2C(C(=O)[O-])=C(C[n+]3ccccc3)CS[C@H]12; test: as §4
[14] = test system: CC(C)(O/N=C(\C(=O)N[C@@H]1C(=O)N2C(C(=O)[O-])=C(C[n+]3ccccc3)CS[C@H]12)c1csc(N)n1)C(=O)O; test: as §4
[15] = test system: Nc1nc(/C(=N/O)C(=O)N[C@@H]2C(=O)N3C(C(=O)O)=C(/C=C4\CCN([C@@H]5CCNC5)C4=O)CS[C@H]23)ns1; test: as §4
[16] = test system: O=C(Cc1cccs1)N[C@@H]1C(=O)N2C(C(=O)O)=C(/C=C/c3ccc([N+](=O)[O-])cc3[N+](=O)[O-])CS[C@H]12; test: as §4
[17] = test system: CO/N=C(\C(=O)N[C@@H]1C(=O)N2C(C(=O)[O-])=C(C[N+]3(C)CCCC3)CS[C@H]12)c1csc(N)n1; test: as §4

“Beta-lactamase VIM-2 (Pseudomonas aeruginosa) (from UniProt Q9K2N0)” gave a Km [1] of 1400 µM, a kcat [1] of 120 s⁻¹ and a Km [2] of 150 µM. The kcat [2] was 0.23 s⁻¹, the Km [3] was 46 µM and the kcat [3] was 15 s⁻¹. It also gave a kcat/Km [4] of 0.086 s⁻¹ µM⁻¹ and a kcat/Km [5] of 0.0015 s⁻¹ µM⁻¹.

Work on “Beta-lactamase (Morganella morganii) (from UniProt P94958)” yielded a kcat/Km [6] of 24 s⁻¹ µM⁻¹, a kcat/Km [7] of 2.8 s⁻¹ µM⁻¹ and a kcat/Km [8] of less than 0.071 s⁻¹ µM⁻¹. For the same substance, the kcat/Km [9] was less than 0.002 s⁻¹ µM⁻¹, the kcat/Km [10] was 39 s⁻¹ µM⁻¹ and the kcat/Km [11] was less than 0.00051 s⁻¹ µM⁻¹. The Km [12] was 7.9 µM, the kcat [12] was 190 s⁻¹ and the Km [13] was 260 µM. For the same substance, the kcat [13] was 740 s⁻¹, the Km [14] was 14 µM and the kcat [14] was less than 1 s⁻¹. It also gave a Km [15] of 23 µM, a kcat [15] of less than 0.047 s⁻¹ and a Km [16] of 31 µM. It also gave a kcat [16] of 1200 s⁻¹, a Km [17] of 690 µM and a kcat [17] of less than 0.35 s⁻¹.
